Patent publication US20120076780A1
Read-outs that look alike come from different tables or passages of the source.

Experiments:
[1] = target: ErbB2 on human tumor cells (SKBR3, A431, T47D, MCF7, MDA-MB231) (human) (UniProt P04626); test: whole-cell ELISA on SKBR3 cells, anti-PE detection, after 24 h at 37 C in 100% human serum
[2] = target: ErbB2 on human tumor cells (SKBR3, A431, T47D, MCF7, MDA-MB231) (human) (UniProt P04626); test: cell-based or functional assay
[3] = target: MUC1, secreted isoform from conditioned medium of MUC1-transfected DA3 cells (UniProt P15941); test: ELISA on coated MUC1 conditioned medium; apparent affinity from the half-maximal binding signal
[4] = target: MUC1 on cells (T47D, MCF7, DA3-MUC1) (human) (UniProt P15941); test: whole-cell ELISA on T47D cells; apparent affinity from the half-maximal binding signal
[5] = target: ErbB-1 (EGFR) on human cancer cells (SCC-1, SCC-9, C1-1 clone 3, C1-1 clone 7) (human) (UniProt P00533); test: cell-based or functional assay
[6] = target: ErbB-1 (EGFR) on human cancer cells (SCC-1, SCC-9, C1-1 clone 3, C1-1 clone 7) (human) (UniProt P00533); test: cell-based or functional assay; remark: listed apart in the source
[7] = target: ErbB-1 (EGFR) on human cancer cells (SCC-1, SCC-9, C1-1 clone 3, C1-1 clone 7) (human) (UniProt P00533); test: cell-based or functional assay; remark: listed apart in the source

chFRP5-ZZ-PE38 immunoconjugate (from UniProt P01857 1-330)
decrease of binding activity [1]: 17% | IC50 (ng/ml), cell killing, MTT assay 48 h, MCF7 cells [2]: 600 ng/mL | IC50 (ng/ml), cell killing, MTT assay 48 h, MDA-MB231 cells [2]: > 10000 ng/mL | IC50 (ng/ml), cell killing, MTT assay 48 h, T47D cells [2]: 1000 ng/mL | IC50 (pM), cell killing, MTT assay, A431 cells [2]: 10 pM | IC50 (pM), cell killing, MTT assay, MCF7 cells [2]: 300 pM

chimeric H23 IgG1 (from UniProt P01857 1-330) (antibody)
Kd [3]: 300 pM | Kd [4]: 300 pM

scFv(FRP5)-ETA
IC50 (pM), cell killing, MTT assay, A431 cells [2]: 52 pM

cross-linked cetuximab-ZZ-PE38 immunotoxin complex
IC50, cell survival, XTT assay, SCC-1 cells [5]: 7.54 ng/mL

cetuximab-ZZ-PE38 complex (non-cross linked)
IC50, cell survival, XTT assay, SCC-1 cells [6]: 0.47 ng/mL | percent of SCC-1 cells killed at 0.001 µg/ml of immunotoxin complex [6]: 80% | IC50, cell survival, XTT assay, SCC-1 cells [5]: 0.31 ng/mL | IC50, cell survival, XTT assay, C1-1 prostate cancer cells clone 3 [7]: 12 ng/mL | IC50, cell survival, XTT assay, C1-1 prostate cancer cells clone 7 [7]: 38 ng/mL | IC50, cell survival, XTT assay, SCC-1 cells [7]: 0.261 ng/mL | IC50, cell survival, XTT assay, SCC-9 cells [7]: 0.073 ng/mL

murine H23 mAb (antibody)
Kd [3]: 200 pM | Kd [4]: 250 pM
